From PMC8933513 (2022)

Key:
[1] = target: porcine aminopeptidase N (pAPN) ectodomain, residues 58-961, wild type (pig) (UniProt P15145); assay: SPR; […], room temperature; […] (0.01 M HEPES, 0.15 M NaCl, 0.5% surfactant P20, 3 mM EDTA, pH 7.4); […]
[2] = target: human aminopeptidase N (hAPN) ectodomain, residues 62-963, wild type (UniProt P15144); assay: as above
Chain of human aminopeptidase N (hAPN) ectodomain, residues 62-963, wild type (P15144 62-963): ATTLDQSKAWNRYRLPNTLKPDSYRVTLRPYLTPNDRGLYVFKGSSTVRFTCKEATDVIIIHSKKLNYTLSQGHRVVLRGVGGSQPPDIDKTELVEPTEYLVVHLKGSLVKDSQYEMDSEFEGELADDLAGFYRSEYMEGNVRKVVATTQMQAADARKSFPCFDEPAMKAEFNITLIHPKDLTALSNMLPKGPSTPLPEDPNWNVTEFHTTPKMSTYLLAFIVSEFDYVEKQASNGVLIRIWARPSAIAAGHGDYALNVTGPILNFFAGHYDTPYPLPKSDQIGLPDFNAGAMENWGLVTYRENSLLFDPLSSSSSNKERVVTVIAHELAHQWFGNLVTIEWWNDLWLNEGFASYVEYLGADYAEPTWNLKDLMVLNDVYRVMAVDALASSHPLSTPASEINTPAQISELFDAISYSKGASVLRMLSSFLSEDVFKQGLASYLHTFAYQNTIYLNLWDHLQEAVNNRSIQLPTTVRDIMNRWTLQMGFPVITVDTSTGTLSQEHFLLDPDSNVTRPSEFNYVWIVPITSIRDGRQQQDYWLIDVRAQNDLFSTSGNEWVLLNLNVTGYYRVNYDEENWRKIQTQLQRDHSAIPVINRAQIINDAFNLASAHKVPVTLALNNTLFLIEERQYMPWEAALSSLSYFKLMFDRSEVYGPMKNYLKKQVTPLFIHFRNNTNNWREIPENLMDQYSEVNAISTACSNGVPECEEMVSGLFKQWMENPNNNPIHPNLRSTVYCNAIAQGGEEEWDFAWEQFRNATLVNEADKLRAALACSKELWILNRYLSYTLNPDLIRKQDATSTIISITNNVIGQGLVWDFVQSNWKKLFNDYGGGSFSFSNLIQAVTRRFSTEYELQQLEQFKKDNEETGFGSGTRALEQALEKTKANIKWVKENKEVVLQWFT

Chain of porcine aminopeptidase N (pAPN) ectodomain, residues 58-961, wild type (pig) (P15145 58-961): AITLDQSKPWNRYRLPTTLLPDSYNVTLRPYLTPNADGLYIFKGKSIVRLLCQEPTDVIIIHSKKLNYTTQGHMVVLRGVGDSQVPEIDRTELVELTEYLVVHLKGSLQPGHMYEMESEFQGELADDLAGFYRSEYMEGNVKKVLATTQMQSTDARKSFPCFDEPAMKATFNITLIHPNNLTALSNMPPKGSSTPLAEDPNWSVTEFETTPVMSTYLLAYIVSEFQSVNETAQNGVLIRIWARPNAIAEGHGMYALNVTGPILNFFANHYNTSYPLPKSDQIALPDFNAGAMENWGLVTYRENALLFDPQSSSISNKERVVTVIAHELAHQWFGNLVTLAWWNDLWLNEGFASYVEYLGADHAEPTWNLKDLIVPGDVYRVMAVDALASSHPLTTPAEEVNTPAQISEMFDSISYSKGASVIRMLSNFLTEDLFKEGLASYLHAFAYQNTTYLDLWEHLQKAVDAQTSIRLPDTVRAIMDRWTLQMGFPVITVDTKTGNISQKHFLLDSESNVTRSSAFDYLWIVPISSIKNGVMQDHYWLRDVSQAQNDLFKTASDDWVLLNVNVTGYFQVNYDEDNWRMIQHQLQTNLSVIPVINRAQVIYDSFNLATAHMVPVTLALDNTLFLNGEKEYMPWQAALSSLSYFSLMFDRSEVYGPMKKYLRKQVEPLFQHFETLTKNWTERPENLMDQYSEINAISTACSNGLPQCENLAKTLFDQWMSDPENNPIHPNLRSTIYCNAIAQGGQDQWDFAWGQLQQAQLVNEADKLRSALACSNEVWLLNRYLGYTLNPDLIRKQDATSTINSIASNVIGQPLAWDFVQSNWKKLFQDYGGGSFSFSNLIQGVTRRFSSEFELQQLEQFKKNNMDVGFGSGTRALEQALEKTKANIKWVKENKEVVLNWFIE

Substance: PDCoV RBD with mutation of residues F318, E320, R322, R357, and Y398
- fold decrease in affinity against wild-type PDCoV RBD [1]: 5 to 150 fold
- fold decrease in affinity against wild-type PDCoV RBD [2]: 5 to 150 fold
